Literature values in publication PMC6438182.

Target: GATAD2A coiled-coil (Homo sapiens) (UniProt Q86YP4)
Chain of UniProt Q86YP4 (Q86YP4 137-178): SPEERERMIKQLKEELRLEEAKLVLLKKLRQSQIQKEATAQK

- Kd: 42 nM
Substance: MBD2 coiled-coil (from UniProt Q9UBB5)
